# From patent US20260242735A1 (UNIVERSIT T BASEL, published 2026)
# What was measured:
# Test in all cases: flow cytometry, HEK293-T, IgG;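 also: CD33 point mutants transiently expressed, antibody binding measured by fluorescence in duplicate, background subtracted and scaled to binding on wild-type CD33 as 100%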
# human CD33 D18R = human CD33 D18R (human, UniProt P20138 19-364)
# Procedure: (§1) An alanine scan on human CD33 was performed to the determine the residues on CD33 that are involved in binding to the antibodies investigated. […] Briefly, a mutation library of CD33 was created by high-throughput, site-directed mutagenesis. Each residue was individually mutated to alanine, with alanine codons mutated to serine. The mutant library was arrayed in 384-well microplates and transiently transfected into HEK293-T. Following transfection, cells were incubated with the indicated antibodies (IgG or Fab) at concentrations pre-determined using an independent immunofluorescence titration curve on wild type CD33. […] Binding of each antibody to each mutant clone was determined in duplicates. For each point, background fluorescence was subtracted from the raw data, which were then normalized to antibody reactivity with wild type CD33.
# (§2) Antibodies were screened for binding to the human CD33 variants in IgG format. […] For each mutation, background fluorescence was subtracted from the raw data, which were then normalized to antibody reactivity with wild-type CD33.
# human CD33 D18N = human CD33 D18N (human, UniProt P20138 19-364)
# Procedure: as §1, §2
# human CD33 P19D = human CD33 P19D (human, UniProt P20138 18-364)
# Procedure: as §1, §2
# human CD33 N20S = human CD33 N20S (human, UniProt P20138 18-364)
# Sequence of human CD33 N20S (P20138 18-364 N20S limits assumed): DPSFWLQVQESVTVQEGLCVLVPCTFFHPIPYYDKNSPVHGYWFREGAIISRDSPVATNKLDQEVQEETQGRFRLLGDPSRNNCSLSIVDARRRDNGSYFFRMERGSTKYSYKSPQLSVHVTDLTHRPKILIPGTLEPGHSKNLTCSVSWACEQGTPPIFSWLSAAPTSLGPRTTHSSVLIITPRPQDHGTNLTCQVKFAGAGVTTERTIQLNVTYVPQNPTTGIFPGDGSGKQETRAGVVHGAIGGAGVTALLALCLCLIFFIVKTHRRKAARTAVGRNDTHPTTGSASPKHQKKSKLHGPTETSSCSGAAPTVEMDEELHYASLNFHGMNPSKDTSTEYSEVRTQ
# Procedure: as §1, §2
# human CD33 N20T = human CD33 N20T (human, UniProt P20138 18-364)
# Procedure: as §1, §2
# human CD33 N20P = human CD33 N20P (human, UniProt P20138 18-364)
# Procedure: as §1, §2
# human CD33 N20Y = human CD33 N20Y (human, UniProt P20138 18-364)
# Procedure: as §1, §2
# human CD33 N20W = human CD33 N20W (human, UniProt P20138 18-364)
# Sequence of human CD33 N20W (P20138 18-364 N20W limits assumed): as the sequence (P20138 18-364 N20S limits assumed) above, with S3W counted along it
# Procedure: as §1, §2
# human CD33 N20D = human CD33 N20D (human, UniProt P20138 18-364)
# Sequence of human CD33 N20D (P20138 18-364 N20D limits assumed): as the sequence (P20138 18-364 N20S limits assumed) above, with S3D counted along it
# Procedure: as §1, §2
# human CD33 N20E = human CD33 N20E (human, UniProt P20138 18-364)
# Procedure: as §1, §2
# human CD33 N20V = human CD33 N20V (human, UniProt P20138 18-364)
# Procedure: as §1, §2
# human CD33 F21S = human CD33 F21S (human, UniProt P20138 18-364)
# Procedure: as §1, §2
# human CD33 F21V = human CD33 F21V (human, UniProt P20138 18-364)
# Procedure: as §1, §2
# human CD33 F21L = human CD33 F21L (human, UniProt P20138 18-364)
# Procedure: as §1, §2
# human CD33 F21I = human CD33 F21I (human, UniProt P20138 18-364)
# Procedure: as §1, §2
# human CD33 W22G = human CD33 W22G (human, UniProt P20138 18-364)
# Procedure: as §1, §2
# human CD33 W22L = human CD33 W22L (human, UniProt P20138 18-364)
# Sequence of human CD33 W22L (P20138 18-364 W22L limits assumed): as the sequence (P20138 18-364 N20S limits assumed) above, with S3N, W5L counted along it
# Procedure: as §1, §2
# human CD33 W22P = human CD33 W22P (human, UniProt P20138 18-364)
# Sequence of human CD33 W22P (P20138 18-364 W22P limits assumed): as the sequence (P20138 18-364 N20S limits assumed) above, with S3N, W5P counted along it
# Procedure: as §1, §2
# human CD33 W22Y = human CD33 W22Y (human, UniProt P20138 18-364)
# Procedure: as §1, §2
# human CD33 W22N = human CD33 W22N (human, UniProt P20138 18-364)
# Sequence of human CD33 W22N (P20138 18-364 W22N limits assumed): as the sequence (P20138 18-364 N20S limits assumed) above, with S3N, W5N counted along it
# Procedure: as §1, §2
# human CD33 W22Q = human CD33 W22Q (human, UniProt P20138 18-364)
# Procedure: as §1, §2
# human CD33 W22E = human CD33 W22E (human, UniProt P20138 18-364)
# Procedure: as §1, §2
# human CD33 W22R = human CD33 W22R (human, UniProt P20138 18-364)
# Procedure: as §1, §2
# human CD33 L23M = human CD33 L23M (human, UniProt P20138 18-364)
# Sequence of human CD33 L23M (P20138 18-364 L23M limits assumed): as the sequence (P20138 18-364 N20S limits assumed) above, with S3N, L6M counted along it
# Procedure: as §1, §2
# human CD33 Q24S = human CD33 Q24S (human, UniProt P20138 18-364)
# Sequence of human CD33 Q24S (P20138 18-364 Q24S limits assumed): as the sequence (P20138 18-364 N20S limits assumed) above, with S3N, Q7S counted along it
# Procedure: as §1, §2
# human CD33 Q24T = human CD33 Q24T (human, UniProt P20138 18-364)
# Sequence of human CD33 Q24T (P20138 18-364 Q24T limits assumed): as the sequence (P20138 18-364 N20S limits assumed) above, with S3N, Q7T counted along it
# Procedure: as §1, §2
# human CD33 Q24V = human CD33 Q24V (human, UniProt P20138 18-364)
# Sequence of human CD33 Q24V (P20138 18-364 Q24V limits assumed): as the sequence (P20138 18-364 N20S limits assumed) above, with S3N, Q7V counted along it
# Procedure: as §1, §2
# human CD33 Q24I = human CD33 Q24I (human, UniProt P20138 18-364)
# Procedure: as §1, §2
# human CD33 Q24L = human CD33 Q24L (human, UniProt P20138 18-364)
# Procedure: as §1, §2
# human CD33 Q24N = human CD33 Q24N (human, UniProt P20138 18-364)
# Sequence of human CD33 Q24N (P20138 18-364 Q24N limits assumed): as the sequence (P20138 18-364 N20S limits assumed) above, with S3N, Q7N counted along it
# Procedure: as §1, §2
# human CD33 Q24H = human CD33 Q24H (human, UniProt P20138 18-364)
# Sequence of human CD33 Q24H (P20138 18-364 Q24H limits assumed): as the sequence (P20138 18-364 N20S limits assumed) above, with S3N, Q7H counted along it
# Procedure: as §1, §2
# human CD33 Q24E = human CD33 Q24E (human, UniProt P20138 18-364)
# Procedure: as §1, §2
# human CD33 Q24R = human CD33 Q24R (human, UniProt P20138 18-364)
# Sequence of human CD33 Q24R (P20138 18-364 Q24R limits assumed): as the sequence (P20138 18-364 N20S limits assumed) above, with S3N, Q7R counted along it
# Procedure: as §1, §2
# human CD33 V25S = human CD33 V25S (human, UniProt P20138 18-364)
# Procedure: as §1, §2
# human CD33 V25I = human CD33 V25I (human, UniProt P20138 18-364)
# Procedure: as §1, §2
# human CD33 V25L = human CD33 V25L (human, UniProt P20138 18-364)
# Procedure: as §1, §2
# human CD33 V25M = human CD33 V25M (human, UniProt P20138 18-364)
# Procedure: as §1, §2
# Sequence of human CD33 D18N (P20138 18-364 D18N limits assumed): as the sequence (P20138 18-364 N20S limits assumed) above, with D1N, S3N counted along it
Binder,Mean % WT Binding (human CD33 D18R) [% WT binding],Mean % WT Binding (human CD33 D18N) [% WT binding],Mean % WT Binding (human CD33 P19D) [% WT binding],Mean % WT Binding (human CD33 N20S) [% WT binding],Mean % WT Binding (human CD33 N20T) [% WT binding],Mean % WT Binding (human CD33 N20P) [% WT binding],Mean % WT Binding (human CD33 N20Y) [% WT binding],Mean % WT Binding (human CD33 N20W) [% WT binding],Mean % WT Binding (human CD33 N20D) [% WT binding],Mean % WT Binding (human CD33 N20E) [% WT binding],Mean % WT Binding (human CD33 N20V) [% WT binding],Mean % WT Binding (human CD33 F21S) [% WT binding],Mean % WT Binding (human CD33 F21V) [% WT binding],Mean % WT Binding (human CD33 F21L) [% WT binding],Mean % WT Binding (human CD33 F21I) [% WT binding],Mean % WT Binding (human CD33 W22G) [% WT binding],Mean % WT Binding (human CD33 W22L) [% WT binding],Mean % WT Binding (human CD33 W22P) [% WT binding],Mean % WT Binding (human CD33 W22Y) [% WT binding],Mean % WT Binding (human CD33 W22N) [% WT binding],other results
"Refmab #5 (antibody, human IgG1, V domains shown, tested in IgG format) VH: QVQLVQSGAEVKKPGASVKVSCKASGYTFTNYDINWVRQAPGQGLEWIGWIYPGDGSTKYNEKFKAKATLTADTSTSTAYMELRSLRSDDTAVYYCASGYEDAMDYWGQGTTVTVSS VL: DIQMTQSPSSLSASVGDRVTINCKASQDINSYLSWFQQKPGKAPKTLIYRANRLVDGVPSRFSGSGSGQDYTLTISSLQPEDFATYYCLQYDEFPLTFGGGTKVEIK",97.4,58.7,96.4,95.1,107,96.8,57.7,71.7,97.1,109,108,112,104,122,95.7,101,96,110,107,106,Mean % WT Binding (human CD33 W22Q): 109 % WT binding; Mean % WT Binding (human CD33 W22E): 111 % WT binding; Mean % WT Binding (human CD33 W22R): 104 % WT binding; Mean % WT Binding (human CD33 L23M): 90.7 % WT binding; Mean % WT Binding (human CD33 Q24S): 110 % WT binding; Mean % WT Binding (human CD33 Q24T): 105 % WT binding; Mean % WT Binding (human CD33 Q24V): 97.9 % WT binding; Mean % WT Binding (human CD33 Q24I): 94.6 % WT binding; Mean % WT Binding (human CD33 Q24L): 101 % WT binding; Mean % WT Binding (human CD33 Q24N): 110 % WT binding; Mean % WT Binding (human CD33 Q24H): 104 % WT binding; Mean % WT Binding (human CD33 Q24E): 95.6 % WT binding; Mean % WT Binding (human CD33 Q24R): 102 % WT binding; Mean % WT Binding (human CD33 V25S): 107 % WT binding; Mean % WT Binding (human CD33 V25I): 98.9 % WT binding; Mean % WT Binding (human CD33 V25L): 94.9 % WT binding; Mean % WT Binding (human CD33 V25M): 87.6 % WT binding
"Refmab #6 (antibody, human IgG1, V domains shown, tested in IgG format) VH: QVQLQQPGAEVVKPGASVKMSCKASGYTFTSYYIHWIKQTPGQGLEWVGVIYPGNDDISYNQKFQGKATLTADKSSTTAYMQLSSLTSEDSAVYYCAREVRLRYFDVWGQGTTVTVSS VL: EIVLTQSPGSLAVSPGERVTMSCKSSQSVFFSSSQKNYLAWYQQIPGQSPRLLIYWASTRESGVPDRFTGSGSGTDFTLTISSVQPEDLAIYYCHQYLSSRTFGQGTKLEIK",68.3,32.2,105,101,106,97.2,28,50.3,103,108,96.9,115,118,118,89.3,8.1,1.1,1.8,4.1,5.6,Mean % WT Binding (human CD33 W22Q): 7.6 % WT binding; Mean % WT Binding (human CD33 W22E): 1.7 % WT binding; Mean % WT Binding (human CD33 W22R): 1.3 % WT binding; Mean % WT Binding (human CD33 L23M): 100 % WT binding; Mean % WT Binding (human CD33 Q24S): 80.7 % WT binding; Mean % WT Binding (human CD33 Q24T): 97.7 % WT binding; Mean % WT Binding (human CD33 Q24V): 94.3 % WT binding; Mean % WT Binding (human CD33 Q24I): 89.9 % WT binding; Mean % WT Binding (human CD33 Q24L): 98.9 % WT binding; Mean % WT Binding (human CD33 Q24N): 95.4 % WT binding; Mean % WT Binding (human CD33 Q24H): 100 % WT binding; Mean % WT Binding (human CD33 Q24E): 89.7 % WT binding; Mean % WT Binding (human CD33 Q24R): 86.2 % WT binding; Mean % WT Binding (human CD33 V25S): 94.7 % WT binding; Mean % WT Binding (human CD33 V25I): 106 % WT binding; Mean % WT Binding (human CD33 V25L): 104 % WT binding; Mean % WT Binding (human CD33 V25M): 68.6 % WT binding
